Data: the supplement of paper PMC5998384

Experiments:
HeLa Kyoto [1] = test: solubility in G1/S (NP-40 vs SDS abundance) (log2 ratio); higher = more soluble; conditions: cell cycle stage: G1/S
HeLa Kyoto [2] = test: melting temperature (median over replicates), in situ; higher = more thermally stable
HeLa Kyoto [3] = test: thermal stability score vs G1/S (z-score of summed log2 fold changes over temperatures); higher = more thermally stable than in G1/S
HeLa Kyoto [4] = test: solubility change mitosis vs G1/S (difference of NP-40 vs SDS log2 ratios) (log2 ratio difference); higher = more soluble in mitosis
[5] = cell cycle stage: early G1 (4.5 h after nocodazole release)
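For melting temperature (median over replicates), in situ in this document: HeLa Kyoto cells synchronized by double thymidine or nocodazole block, proteins quantified by TMT10plex mass spectrometry, three independent biological replicates.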
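For solubility change mitosis vs G1/S (difference of NP-40 vs SDS log2 ratios) in this document: synchronized HeLa Kyoto cells (double thymidine block for G1/S, nocodazole release for mitosis), protein amounts in NP-40 versus SDS lysates quantified by mass spectrometry, three biological replicates.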
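For solubility in G1/S (NP-40 vs SDS abundance) in this document: HeLa Kyoto cells arrested at G1/S by double thymidine block, proteins quantified by TMT10plex mass spectrometry in mild NP-40 versus SDS extracts, three biological replicates.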
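For thermal stability score vs G1/S (z-score of summed log2 fold changes over temperatures) in this document: synchronized HeLa Kyoto cells, proteins quantified by TMT10plex mass spectrometry, three biological replicates, mitosis taken 0.5 h after nocodazole release, G1/S directly after double thymidine block.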

**Q.** “MAAADAEAVPARGEPQQDCCVKTELLGEETPMAADEGSAEKQAGEAHMAADGETNGSCENSDASSHANAAKHTQDSARVNPQDGTNTLTRIAENGVSERDSEAAKQNHVTADDFVQTSVIGSNGYILNKPALQAQPLRTTSTLASSLPGHAAKTLPGGAGKGRTPSAFPQTPAAPPATLGEGSADTEDRKLPAPGADVKVHRARKTMPKSVVGLHAASKDPREVREARDHKEPKEEINKNISDFGRQQLLPPFPSLHQSLPQNQCYMATTKSQTACLPFVLAAAVSRKKKRRMGTYSLVPKKKTKVLKQRTVIEMFKSITHSTVGSKGEKDLGASSLHVNGESLEMDSDEDDSEELEEDDGHGAEQAAAFPTEDSRTSKESMSEADRAQKMDGESEEEQESVDTGEEEEGGDESDLSSESSIKKKFLKRKGKTDSPWIKPARKRRRRSRKKPSGALGSESYKSSAGSAEQTAPGDSTGYMEVSLDSLDLRVKGILSSQAEGLANGPDVLETDGLQEVPLCSCRMETPKSREITTLANNQCMATESVDHELGRCTNSVVKYELMRPSNKAPLLVLCEDHRGRMVKHQCCPGCGYFCTAGNFMECQPESSISHRFHKDCASRVNNASYCPHCGEESSKAKEVTIAKADTTSTVTPVPGQEKGSALEGRADTTTGSAAGPPLSEDDKLQGAASHVPEGFDPTGPAGLGRPTPGLSQGPGKETLESALIALDSEKPKKLRFHPKQLYFSARQGELQKVLLMLVDGIDPNFKMEHQNKRSPLHAAAEAGHVDICHMLVQAGANIDTCSEDQRTPLMEAAENNHLEAVKYLIKAGALVDPKDAEGSTCLHLAAKKGHYEVVQYLLSNGQMDVNCQDDGGWTPMIWATEYKHVDLVKLLLSKGSDINIRDNEENICLHWAAFSGCVDIAEILLAAKCDLHAVNIHGDSPLHIAARENRYDCVVLFLSRDSDVTLKNKEGETPLQCASLNSQVWSALQMSKALQDSAPDRPSPVERIVSRDIARGYERIPIPCVNAVDSEPCPSNYKYVSQNCVTSPMNIDRNITHLQYCVCIDDCSSSNCMCGQLSMRCWYDKDGRLLPEFNMAEPPLIFECNHACSCWRNCRNRVVQNGLRARLQLYRTRDMGWGVRSLQDIPPGTFVCEYVGELISDSEADVREEDSYLFDLDNKDGEVYCIDARFYGNVSRFINHHCEPNLVPVRVFMAHQDLRFPRIAFFSTRLIEAGEQLGFDYGERFWDIKGKLFSCRCGSPKCRHSSAALAQRQASAAQEAQEDGLPDTSSAAAADPL [EHMT1]” was tested. Which “solubility in G1/S (log2)” value (HeLa Kyoto [1]) did it give?
**A.** -0.58

**Q.** What about the melting temperature (HeLa Kyoto [2]; cell cycle stage: G1/S) of the same sequence?
**A.** 50.2 °C

**Q.** What about the thermal stability score (HeLa Kyoto [3]; [5]) of the same sequence?
**A.** 1.22

**Q.** And the thermal stability score (HeLa Kyoto [3]; cell cycle stage: mitosis)?
**A.** 2.18

**Q.** What about the “solubility change mitosis (log2)” value (HeLa Kyoto [4]) of the same sequence?
**A.** 0.332

**Q.** With “MPGVKLTTQAYCKMVLHGAKYPHCAVNGLLVAEKQKPRKEHLPLGGPGAHHTLFVDCIPLFHGTLALAPMLEVALTLIDSWCKDHSYVIAGYYQANERVKDASPNQVAEKVASRIAEGFSDTALIMVDNTKFTMDCVAPTIHVYEHHENRWRCRDPHHDYCEDWPEAQRISASLLDSRSYETLVDFDNHLDDIRNDWTNPEINKAVLHLC [EMC8]” as the sequence, how does the “solubility in G1/S (log2)” value (HeLa Kyoto [1]) read?
**A.** 0.269

**Q.** And the melting temperature (HeLa Kyoto [2]; cell cycle stage: G1/S)?
**A.** 53.1 °C

**Q.** What about the melting temperature (HeLa Kyoto [2]; cell cycle stage: mitosis) of the same sequence?
**A.** 53.3 °C

**Q.** And the thermal stability score (HeLa Kyoto [3]; [5])?
**A.** -1.83

**Q.** What about the thermal stability score (HeLa Kyoto [3]; cell cycle stage: mitosis) of the same sequence?
**A.** -2.67

**Q.** And the “solubility change mitosis (log2)” value (HeLa Kyoto [4])?
**A.** -0.272

**Q.** “MAARVLIIGSGGREHTLAWKLAQSHHVKQVLVAPGNAGTACSEKISNTAISISDHTALAQFCKEKKIEFVVVGPEAPLAAGIVGNLRSAGVQCFGPTAEAAQLESSKRFAKEFMDRHGIPTAQWKAFTKPEEACSFILSADFPALVVKASGLAAGKGVIVAKSKEEACKAVQEIMQEKAFGAAGETIVIEELLDGEEVSCLCFTDGKTVAPMPPAQDHKRLLEGDGGPNTGGMGAYCPAPQVSNDLLLKIKDTVLQRTVDGMQQEGTPYTGILYAGIMLTKNGPKVLEFNCRFGDPECQVILPLLKSDLYEVIQSTLDGLLCTSLPVWLENHTALTVVMASKGYPGDYTKGVEITGFPEAQALGLEVFHAGTALKNGKVVTHGGRVLAVTAIRENLISALEEAKKGLAAIKFEGAIYRKDVGFRAIAFLQQPRSLTYKESGVDIAAGNMLVKKIQPLAKATSRSGCKVDLGGFAGLFDLKAAGFKDPLLASGTDGVGTKLKIAQLCNKHDTIGQDLVAMCVNDILAQGAEPLFFLDYFSCGKLDLSVTEAVVAGIAKACGKAGCALLGGETAEMPDMYPPGEYDLAGFAVGAMERDQKLPHLERITEGDVVVGIASSGLHSNGFSLVRKIVAKSSLQYSSPAPDGCGDQTLGDLLLTPTRIYSHSLLPVLRSGHVKAFAHITGGGLLENIPRVLPEKLGVDLDAQTWRIPRVFSWLQQEGHLSEEEMARTFNCGVGAVLVVSKEQTEQILRDIQQHKEEAWVIGSVVARAEGSPRVKVKNLIESMQINGSVLKNGSLTNHFSFEKKKARVAVLISGTGSNLQALIDSTREPNSSAQIDIVISNKAAVAGLDKAERAGIPTRVINHKLYKNRVEFDSAIDLVLEEFSIDIVCLAGFMRILSGPFVQKWNGKMLNIHPSLLPSFKGSNAHEQALETGVTVTGCTVHFVAEDVDAGQIILQEAVPVKRGDTVATLSERVKLAEHKIFPAALQLVASGTVQLGENGKICWVKEE [GART]” was tested. Which “solubility in G1/S (log2)” value (HeLa Kyoto [1]) did it give?
**A.** 0.201

**Q.** And the melting temperature (HeLa Kyoto [2]; cell cycle stage: G1/S)?
**A.** 50.8 °C

**Q.** And the melting temperature (HeLa Kyoto [2]; cell cycle stage: mitosis)?
**A.** 51 °C

**Q.** What about the thermal stability score (HeLa Kyoto [3]; [5]) of the same sequence?
**A.** 0.0198

**Q.** What about the thermal stability score (HeLa Kyoto [3]; cell cycle stage: mitosis) of the same sequence?
**A.** 0.936

**Q.** What about the “solubility change mitosis (log2)” value (HeLa Kyoto [4]) of the same sequence?
**A.** -0.137

**Q.** How did the “solubility in G1/S (log2)” value (HeLa Kyoto [1]) turn out when “MANEEDDPVVQEIDVYLAKSLAEKLYLFQYPVRPASMTYDDIPHLSAKIKPKQQKVELEMAIDTLNPNYCRSKGEQIALNVDGACADETSTYSSKLMDKQTFCSSQTTSNTSRYAAALYRQGELHLTPLHGILQLRPSFSYLDKADAKHREREAANEAGDSSQDEAEDDVKQITVRFSRPESEQARQRRVQSYEFLQKKHAEEPWVHLHYYGLRDSRSEHERQYLLCPGSSGVENTELVKSPSEYLMMLMPPSQEEEKDKPVAPSNVLSMAQLRTLPLADQIKILMKNVKVMPFANLMSLLGPSIDSVAVLRGIQKVAMLVQGNWVVKSDILYPKDSSSPHSGVPAEVLCRGRDFVMWKFTQSRWVVRKEVATVTKLCAEDVKDFLEHMAVVRINKGWEFILPYDGEFIKKHPDVVQRQHMLWTGIQAKLEKVYNLVKETMPKKPDAQSGPAGLVCGDQRIQVAKTKAQQNHALLERELQRRKEQLRVPAVPPGVRIKEEPVSEEGEEDEEQEAEEEPMDTSPSGLHSKLANGLPLGRAAGTDSFNGHPPQGCASTPVARELKAFVEATFQRQFVLTLSELKRLFNLHLASLPPGHTLFSGISDRMLQDTVLAAGCKQILVPFPPQTAASPDEQKVFALWESGDMSDQHRQVLLEIFSKNYRVRRNMIQSRLTQECGEDLSKQEVDKVLKDCCVSYGGMWYLKGTVQS [POLR3E]” was run?
**A.** 0.128

**Q.** And the melting temperature (HeLa Kyoto [2]; cell cycle stage: G1/S)?
**A.** 49.8 °C

**Q.** And the melting temperature (HeLa Kyoto [2]; cell cycle stage: mitosis)?
**A.** 49.9 °C

**Q.** And the thermal stability score (HeLa Kyoto [3]; [5])?
**A.** 0.337

**Q.** What about the thermal stability score (HeLa Kyoto [3]; cell cycle stage: mitosis) of the same sequence?
**A.** 0.588

**Q.** And the “solubility change mitosis (log2)” value (HeLa Kyoto [4])?
**A.** -0.0491
